Experimental findings from article PMC4763255, “Diversity between mammalian tolloid proteinases: Oligomerisation and non-catalytic domains influence activity and specificity” (Scientific Reports, 2016) are described below.

B1: TLL2 CUB1-CUB2-EGF1 (domain or fragment, human, UniProt Q9Y6L7 351-617, looked up)
chain: CGETLQDTTGNFSAPGFPNGYPSYSHCVWRISVTPGEKIVLNFTSMDLFKSRLCWYDYVEVRDGYWRKAPLLGRFCGDKIPEPLVSTDSRLWVEFRSSSNILGKGFFAAYEATCGGDMNKDAGQIQSPNYPDDYRPSKECVWRITVSEGFHVGLTFQAFEIERHDSCAYDYLEVRDGPTEESALIGHFCGYEKPEDVKSSSNRLWMKFVSDGSINKAGFAANFFKEVDECSWPDHGGCEHRCVNTLGSYKCACDPGYELAADKKMCE
notes: mammalian tolloid like-2 (TLL-2), human; domains CUB1, CUB2 and EGF1; Cloned at OPPF-UK in pOPINTTGneo; also called TLL2-C1C2E1; C1C2E1 from TLL-2
B2: TLL2 CUB4-CUB5 (domain or fragment, human, UniProt Q9Y6L7 776-1005, looked up)
chain: CAHKISSVEGTLASPNWPDKYPSRRECTWNISSTAGHRVKLTFNEFEIEQHQECAYDHLEMYDGPDSLAPILGRFCGSKKPDPTVASGSSMFLRFYSDASVQRKGFQAVHSTECGGRLKAEVQTKELYSHAQFGDNNYPSEARCDWVIVAEDGYGVELTFRTFEVEEEADCGYDYMEAYDGYDSSAPRLGRFCGSGPLEEIYSAGDSLMIRFRTDDTINKKGFHARYTST
notes: mammalian tolloid like-2 (TLL-2), human; domains CUB4 and CUB5; Cloned at OPPF-UK in pOPINTTGneo; also called TLL2-C4C5; C4C5 from TLL-2
B3: mTLD CUB4-CUB5 (domain or fragment, UniProt P13497 747-976, looked up)
chain: CDHKVTSTSGTITSPNWPDKYPSKKECTWAISSTPGHRVKLTFMEMDIESQPECAYDHLEVFDGRDAKAPVLGRFCGSKKPEPVLATGSRMFLRFYSDNSVQRKGFQASHATECGGQVRADVKTKDLYSHAQFGDNNYPGGVDCEWVIVAEEGYGVELVFQTFEVEEETDCGYDYMELFDGYDSTAPRLGRYCGSGPPEEVYSAGDSVLVKFHSDDTITKKGFHLRYTST
notes: mammalian tolloid (mTLD), product of the Bmp1 gene; domains CUB4 and CUB5; Cloned at OPPF-UK in pOPINTTGneo; also called mTLD-C4C5; C4C5 from mTLD
B4: TLL1 CUB1-CUB2-EGF1 (domain or fragment, UniProt O43897 349-615, looked up)
chain: CGETLQESNGNLSSPGFPNGYPSYTHCIWRVSVTPGEKIVLNFTTMDLYKSSLCWYDYIEVRDGYWRKSPLLGRFCGDKLPEVLTSTDSRMWIEFRSSSNWVGKGFAAVYEAICGGEIRKNEGQIQSPNYPDDYRPMKECVWKITVSESYHVGLTFQSFEIERHDNCAYDYLEVRDGTSENSPLIGRFCGYDKPEDIRSTSNTLWMKFVSDGTVNKAGFAANFFKEEDECAKPDRGGCEQRCLNTLGSYQCACEPGYELGPDRRSCE
notes: mammalian tolloid like-1 (TLL-1); domains CUB1, CUB2 and EGF1; Cloned at OPPF-UK in pOPINTTGneo; also called TLL1-C1C2E1; C1C2E1 from TLL-1
B5: mTLD CUB1-CUB2-EGF1 (domain or fragment, UniProt P13497 322-588, looked up)
chain: CGETLQDSTGNFSSPEYPNGYSAHMHCVWRISVTPGEKIILNFTSLDLYRSRLCWYDYVEVRDGFWRKAPLRGRFCGSKLPEPIVSTDSRLWVEFRSSSNWVGKGFFAVYEAICGGDVKKDYGHIQSPNYPDDYRPSKVCIWRIQVSEGFHVGLTFQSFEIERHDSCAYDYLEVRDGHSESSTLIGRYCGYEKPDDIKSTSSRLWLKFVSDGSINKAGFAVNFFKEVDECSRPNRGGCEQRCLNTLGSYKCSCDPGYELAPDKRRCE
notes: mammalian tolloid (mTLD), product of the Bmp1 gene; domains CUB1, CUB2 and EGF1 (shared with BMP-1); Cloned at OPPF-UK in pOPINTTGneo; also called mTLD-C1C2E1; C1C2E1 from mTLD/BMP1
B6: TLL1 CUB4-CUB5 (domain or fragment, UniProt O43897 774-1003, looked up)
chain: CEQKIHSPSGLITSPNWPDKYPSRKECTWEISATPGHRIKLAFSEFEIEQHQECAYDHLEVFDGETEKSPILGRLCGNKIPDPLVATGNKMFVRFVSDASVQRKGFQATHSTECGGRLKAESKPRDLYSHAQFGDNNYPGQVDCEWLLVSERGSRLELSFQTFEVEEEADCGYDYVELFDGLDSTAVGLGRFCGSGPPEEIYSIGDSVLIHFHTDDTINKKGFHIRYKSI
notes: mammalian tolloid like-1 (TLL-1); domains CUB4 and CUB5; Cloned at OPPF-UK in pOPINTTGneo; also called TLL1-C4C5; C4C5 from TLL-1
B7: human mammalian tolloid like-2 (TLL-2) (enzyme, UniProt Q9Y6L7 26-1015, looked up)
chain: ATTSRTERIWPGGVIPYVIGGNFTGSQRAIFKQAMRHWEKHTCVTFIERTDEESFIVFSYRTCGCCSYVGRRGGGPQAISIGKNCDKFGIVAHELGHVVGFWHEHTRPDRDQHVTIIRENIQPGQEYNFLKMEAGEVSSLGETYDFDSIMHYARNTFSRGVFLDTILPRQDDNGVRPTIGQRVRLSQGDIAQARKLYKCPACGETLQDTTGNFSAPGFPNGYPSYSHCVWRISVTPGEKIVLNFTSMDLFKSRLCWYDYVEVRDGYWRKAPLLGRFCGDKIPEPLVSTDSRLWVEFRSSSNILGKGFFAAYEATCGGDMNKDAGQIQSPNYPDDYRPSKECVWRITVSEGFHVGLTFQAFEIERHDSCAYDYLEVRDGPTEESALIGHFCGYEKPEDVKSSSNRLWMKFVSDGSINKAGFAANFFKEVDECSWPDHGGCEHRCVNTLGSYKCACDPGYELAADKKMCEVACGGFITKLNGTITSPGWPKEYPTNKNCVWQVVAPAQYRISLQFEVFELEGNDVCKYDFVEVRSGLSPDAKLHGRFCGSETPEVITSQSNNMRVEFKSDNTVSKRGFRAHFFSDKDECAKDNGGCQHECVNTFGSYLCRCRNGYWLHENGHDCKEAGCAHKISSVEGTLASPNWPDKYPSRRECTWNISSTAGHRVKLTFNEFEIEQHQECAYDHLEMYDGPDSLAPILGRFCGSKKPDPTVASGSSMFLRFYSDASVQRKGFQAVHSTECGGRLKAEVQTKELYSHAQFGDNNYPSEARCDWVIVAEDGYGVELTFRTFEVEEEADCGYDYMEAYDGYDSSAPRLGRFCGSGPLEEIYSAGDSLMIRFRTDDTINKKGFHARYTSTKFQDALHMKK
modifications: N-linked glycans (5 predicted from primary sequence; shift with PNGaseF)
notes: purified as a secreted protein; predicted mass of a monomer printed as 98.58 kDa; also called mTLL2; mTLL-2

The first series concerns the target T1, ΔN-chordin (UniProt Q9H2X0 127-955).
T1 construct: chordin, N-terminally truncated form called ΔN-chordin
T1 sequence (looked up): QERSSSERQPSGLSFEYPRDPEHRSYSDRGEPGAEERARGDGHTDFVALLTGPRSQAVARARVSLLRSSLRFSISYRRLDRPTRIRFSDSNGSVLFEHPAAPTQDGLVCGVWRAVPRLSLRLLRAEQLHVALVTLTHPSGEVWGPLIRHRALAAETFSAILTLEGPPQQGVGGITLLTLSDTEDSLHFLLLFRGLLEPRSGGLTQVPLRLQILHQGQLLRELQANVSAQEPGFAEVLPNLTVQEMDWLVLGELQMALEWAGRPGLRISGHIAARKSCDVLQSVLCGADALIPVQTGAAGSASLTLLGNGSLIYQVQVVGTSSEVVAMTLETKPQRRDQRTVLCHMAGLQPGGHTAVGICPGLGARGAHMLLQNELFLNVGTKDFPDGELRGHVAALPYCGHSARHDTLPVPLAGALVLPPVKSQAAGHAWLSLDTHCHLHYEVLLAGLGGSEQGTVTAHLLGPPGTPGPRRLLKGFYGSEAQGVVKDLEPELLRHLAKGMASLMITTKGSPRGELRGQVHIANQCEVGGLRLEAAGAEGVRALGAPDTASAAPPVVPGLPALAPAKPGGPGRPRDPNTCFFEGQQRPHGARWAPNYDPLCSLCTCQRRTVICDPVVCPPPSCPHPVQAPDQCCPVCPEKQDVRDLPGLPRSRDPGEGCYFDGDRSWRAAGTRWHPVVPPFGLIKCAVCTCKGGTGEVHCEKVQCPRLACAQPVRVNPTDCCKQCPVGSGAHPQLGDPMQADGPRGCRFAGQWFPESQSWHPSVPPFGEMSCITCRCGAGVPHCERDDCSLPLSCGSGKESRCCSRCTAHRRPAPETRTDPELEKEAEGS
In words: SPR; tolloid fragments immobilised on a GLC chip by amine coupling, ΔN-chordin injected as analyte at increasing concentrations; ProteOn XPR36; 10 mM HEPES, 150 mM NaCl, 2 mM CaCl2, 0.05% Tween 20, pH 7.4, 25 °C; 1:1 Langmuir model; triplicate. To be noted: both partners purified. Background: SPR reads the build-up and loss of mass on a sensor chip optically.
B1 displayed a Kd of 247 ± 260 pM.
Same read-out and setting: the same measure for B2: 250 ± 20 pM; for B3: 190 ± 20 pM; for B4: 57 ± 3 pM.
Same read-out and setting: the same measure for B5: 278 pM; for B6: 56 ± 10 pM.

The next series concerns the molecule itself. In words: negative-stain electron microscopy, single-particle analysis; TLL-2 ~10 ug/ml in 10 mM HEPES, 500 mM NaCl, 2 mM CaCl2, pH 7.4 on carbon-coated grids, 4% uranyl acetate.
Conditions: not given
With B7, the “stoichiometry N” value is 2.

Usually Kd stands for a measure of binding affinity in units of concentration. Read a high Kd as weaker binding. In general, stoichiometry N refers to the number of molecules, sites or subunits per partner or assembly.
